Data on four variants can be found in IntAct's records for PubMed 11356864.

The labels stand for the following.
B1: Syndecan-2 (Rattus norvegicus (Rat)), P34900 (parent)
chain: MQRAWILLTLGLMACVSAETRAELTSDKDMYLDSSSIEEASGLYPIDDDDYSSASGSGAYEDKGSPDLTTSQLIPRISLTSAAPEVETMTLKTQSITPTQTESPEETDKKEFEISEAEEKQDPAVKSTDVYTEKHSDNLFKRTEVLAAVIAGGVIGFLFAIFLILLLVYRMRKKDEGSYDLGERKPSSAAYQKAPTKEFYA

The first experiment covers variants of B1. To be noted: with nf1_human NF1, P21359.
nf1_human NF1, P21359, sequence (P21359 whole entry): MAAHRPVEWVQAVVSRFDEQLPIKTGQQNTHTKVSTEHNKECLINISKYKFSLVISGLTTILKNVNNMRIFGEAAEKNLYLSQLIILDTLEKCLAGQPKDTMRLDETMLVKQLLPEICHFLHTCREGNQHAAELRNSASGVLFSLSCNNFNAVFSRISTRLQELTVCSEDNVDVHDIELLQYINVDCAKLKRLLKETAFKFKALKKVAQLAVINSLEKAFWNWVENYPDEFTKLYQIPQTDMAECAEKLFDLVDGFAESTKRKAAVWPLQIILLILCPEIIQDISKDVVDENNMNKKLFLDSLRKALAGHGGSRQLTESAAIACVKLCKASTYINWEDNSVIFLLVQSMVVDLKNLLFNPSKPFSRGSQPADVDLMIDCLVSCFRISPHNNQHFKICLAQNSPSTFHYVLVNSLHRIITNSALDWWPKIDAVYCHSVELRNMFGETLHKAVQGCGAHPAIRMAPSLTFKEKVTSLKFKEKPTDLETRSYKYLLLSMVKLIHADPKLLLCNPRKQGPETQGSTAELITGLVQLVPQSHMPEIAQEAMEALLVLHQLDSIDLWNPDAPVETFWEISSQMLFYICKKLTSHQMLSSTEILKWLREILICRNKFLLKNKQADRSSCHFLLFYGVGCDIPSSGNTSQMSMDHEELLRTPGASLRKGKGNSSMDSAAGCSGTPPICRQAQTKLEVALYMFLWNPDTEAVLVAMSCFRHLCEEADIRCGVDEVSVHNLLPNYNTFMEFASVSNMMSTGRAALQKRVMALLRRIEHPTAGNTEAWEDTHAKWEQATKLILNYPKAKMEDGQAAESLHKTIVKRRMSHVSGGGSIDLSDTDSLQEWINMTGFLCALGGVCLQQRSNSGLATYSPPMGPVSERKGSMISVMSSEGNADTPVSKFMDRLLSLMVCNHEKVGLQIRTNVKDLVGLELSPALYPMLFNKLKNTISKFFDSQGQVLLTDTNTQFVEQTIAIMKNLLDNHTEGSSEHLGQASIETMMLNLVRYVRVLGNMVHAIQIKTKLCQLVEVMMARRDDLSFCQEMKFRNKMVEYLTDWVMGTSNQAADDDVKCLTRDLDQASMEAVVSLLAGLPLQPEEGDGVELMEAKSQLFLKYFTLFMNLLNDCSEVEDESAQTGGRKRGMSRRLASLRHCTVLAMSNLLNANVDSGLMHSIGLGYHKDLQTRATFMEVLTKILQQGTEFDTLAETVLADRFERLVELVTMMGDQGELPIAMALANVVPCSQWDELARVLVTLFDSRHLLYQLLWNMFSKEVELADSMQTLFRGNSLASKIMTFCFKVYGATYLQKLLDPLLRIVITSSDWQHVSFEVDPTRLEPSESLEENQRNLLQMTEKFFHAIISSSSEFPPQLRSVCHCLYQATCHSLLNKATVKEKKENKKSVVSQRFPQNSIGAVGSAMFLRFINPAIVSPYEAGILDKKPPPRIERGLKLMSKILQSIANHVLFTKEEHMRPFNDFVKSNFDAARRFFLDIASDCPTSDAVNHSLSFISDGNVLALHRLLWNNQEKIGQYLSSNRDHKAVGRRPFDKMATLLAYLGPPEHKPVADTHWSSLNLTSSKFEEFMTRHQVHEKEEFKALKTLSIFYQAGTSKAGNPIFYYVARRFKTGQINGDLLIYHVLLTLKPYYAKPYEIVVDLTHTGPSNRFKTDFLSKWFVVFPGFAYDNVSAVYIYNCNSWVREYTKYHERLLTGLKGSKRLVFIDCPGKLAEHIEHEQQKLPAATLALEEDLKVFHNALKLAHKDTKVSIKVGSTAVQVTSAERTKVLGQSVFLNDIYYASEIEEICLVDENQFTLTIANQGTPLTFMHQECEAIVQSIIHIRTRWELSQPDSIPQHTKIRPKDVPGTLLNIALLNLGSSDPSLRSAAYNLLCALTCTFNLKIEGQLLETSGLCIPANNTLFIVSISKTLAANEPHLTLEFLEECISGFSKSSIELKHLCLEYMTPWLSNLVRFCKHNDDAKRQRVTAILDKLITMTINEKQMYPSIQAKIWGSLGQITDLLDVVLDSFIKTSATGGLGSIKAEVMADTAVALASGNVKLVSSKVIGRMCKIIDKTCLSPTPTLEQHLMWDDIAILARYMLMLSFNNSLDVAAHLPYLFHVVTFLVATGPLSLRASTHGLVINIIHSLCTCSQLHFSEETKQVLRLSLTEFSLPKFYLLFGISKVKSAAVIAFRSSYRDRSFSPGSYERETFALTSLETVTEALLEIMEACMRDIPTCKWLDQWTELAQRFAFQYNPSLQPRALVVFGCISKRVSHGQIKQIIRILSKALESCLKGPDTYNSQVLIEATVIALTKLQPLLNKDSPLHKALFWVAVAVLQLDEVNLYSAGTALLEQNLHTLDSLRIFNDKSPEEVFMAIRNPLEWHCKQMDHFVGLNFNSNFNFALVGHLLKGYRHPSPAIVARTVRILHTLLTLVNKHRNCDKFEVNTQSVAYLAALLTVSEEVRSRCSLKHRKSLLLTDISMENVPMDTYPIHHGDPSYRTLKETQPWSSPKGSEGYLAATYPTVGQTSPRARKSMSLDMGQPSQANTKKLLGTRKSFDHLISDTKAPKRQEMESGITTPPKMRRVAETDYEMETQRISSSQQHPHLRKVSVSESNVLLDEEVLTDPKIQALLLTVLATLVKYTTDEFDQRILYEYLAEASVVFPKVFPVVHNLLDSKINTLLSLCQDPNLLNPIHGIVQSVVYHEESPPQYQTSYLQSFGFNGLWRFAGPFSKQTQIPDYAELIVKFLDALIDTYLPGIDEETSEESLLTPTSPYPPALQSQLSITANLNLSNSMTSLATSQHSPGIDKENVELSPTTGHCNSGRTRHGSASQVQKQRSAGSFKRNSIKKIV
In the case of R172A;K173A, the “effect of a mutation on the interaction” value is “decreasing interaction”.

E176A;G177A: the “effect of a mutation on the interaction” value is “decreasing interaction”.

In the case of S178A;Y179A, the “effect of a mutation on the interaction” value was “increasing interaction”.

On to K174A;D175A, for which the “effect of a mutation on the interaction” value is “decreasing interaction”.

The variants in another experiment derive from B1. To be noted: with nf1_human NF1, P21359. The source holds these as a separate data set.
On to S178A;Y179A, for which the “effect of a mutation on the interaction” value is reported as “decreasing interaction”.
